This note sets out measurements from patent US20240002820A1.

The target in this experiment is Uracil DNA glycosylase (UNG), endogenous in HuH-7 and U-2OS cells (UniProt P13051). Description: cell-based or functional assay.
Sequence of UniProt P13051 (P13051 whole entry): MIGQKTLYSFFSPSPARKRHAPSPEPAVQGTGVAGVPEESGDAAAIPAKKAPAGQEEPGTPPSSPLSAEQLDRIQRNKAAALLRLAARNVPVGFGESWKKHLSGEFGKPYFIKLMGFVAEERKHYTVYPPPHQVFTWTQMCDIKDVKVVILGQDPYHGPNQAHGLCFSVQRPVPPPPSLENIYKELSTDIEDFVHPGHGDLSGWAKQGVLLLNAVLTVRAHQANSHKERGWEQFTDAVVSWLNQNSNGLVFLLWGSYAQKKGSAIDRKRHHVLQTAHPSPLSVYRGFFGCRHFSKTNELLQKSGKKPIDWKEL

Consider “Uracil Glycosylase Inhibitor (UGI), overexpressed from plasmid pCDNA3.1-UGI (from UniProt P14739 1-84)”, for which the Fold change relative to GFP in % of edited reads, C-to-A/G or indel, HuH-7 cells, BC22 + UGI overexpression (fold change relative to GFP) was -4.53; the Fold change relative to GFP in % of edited reads, C-to-A/G or indel, HuH-7 cells, BC22 + UGI overexpression + siRNA against UNG (fold change relative to GFP) is -4.76; the Fold change relative to GFP in % of edited reads, C-to-A/G or indel, HuH-7 cells, BC27 + UGI overexpression (fold change relative to GFP) was -9.3; the Fold change relative to GFP in % of edited reads, C-to-A/G or indel, HuH-7 cells, BC27 + UGI overexpression + siRNA against UNG (fold change relative to GFP) was -10.8. Moreover, the Fold change relative to GFP in % of edited reads, C-to-A/G or indel, U-2OS cells, BC22 + UGI overexpression (fold change relative to GFP) is -2.97; the Fold change relative to GFP in % of edited reads, C-to-A/G or indel, U-2OS cells, BC22 + UGI overexpression + siRNA against UNG (fold change relative to GFP) was -3.46; the Fold change relative to GFP in % of edited reads, C-to-A/G or indel, U-2OS cells, BC27 + UGI overexpression (fold change relative to GFP) is -3.09; the Fold change relative to GFP in % of edited reads, C-to-A/G or indel, U-2OS cells, BC27 + UGI overexpression + siRNA against UNG (fold change relative to GFP) was -3.48. Moreover, the Fold change relative to GFP in % of edited reads, C-to-T, HuH-7 cells, BC22 + UGI overexpression (fold change relative to GFP) worked out at 1.56; the Fold change relative to GFP in % of edited reads, C-to-T, HuH-7 cells, BC22 + UGI overexpression + siRNA against UNG (fold change relative to GFP) came out at 1.57; the Fold change relative to GFP in % of edited reads, C-to-T, HuH-7 cells, BC27 + UGI overexpression (fold change relative to GFP) worked out at 2.13; the Fold change relative to GFP in % of edited reads, C-to-T, HuH-7 cells, BC27 + UGI overexpression + siRNA against UNG (fold change relative to GFP) came to 2.15. Moreover, the Fold change relative to GFP in % of edited reads, C-to-T, U-2OS cells, BC22 + UGI overexpression (fold change relative to GFP) stood at 1.21; the Fold change relative to GFP in % of edited reads, C-to-T, U-2OS cells, BC22 + UGI overexpression + siRNA against UNG (fold change relative to GFP) amounted to 1.22; the Fold change relative to GFP in % of edited reads, C-to-T, U-2OS cells, BC27 + UGI overexpression (fold change relative to GFP) turned out to be 1.92; the Fold change relative to GFP in % of edited reads, C-to-T, U-2OS cells, BC27 + UGI overexpression + siRNA against UNG (fold change relative to GFP) was 1.97. In addition, the Share of total edits that are C-to-T-only edits, HuH-7 cells, BC22 or BC27 + UGI overexpression was 94%.
